Laboratory results reported in paper PMC7885909 (bioRxiv, 2021).
Changes are numbered by the printed parent chain.

Columns and labels:
SARS-CoV RBD = SARS-CoV RBD (SARS-CoV, GenBank ABD72970.1, UniProt Q202E5); assay: ELISA
WIV1 RBD = WIV1 RBD (bat SARS-like CoV WIV1, GenBank …, UniProt U5WI05); assay: ELISA
RaTG13 RBD = RaTG13 RBD (bat CoV RaTG13, GenBank MN996532.2, UniProt A0ABF7PLN6); assay: ELISA
SHC014 RBD = SHC014 RBD (bat CoV SHC014, GenBank QJE50589.1, UniProt A0A6M3U4F6); assay: ELISA
[1] = molecular target: T1, SARS-CoV-2 receptor binding domain (RBD), wild type, monomeric (SARS-CoV-2, GenBank MN975262.1 (wild …, UniProt A0A679G9E9)); assay: ELISA
[2] = molecular target: T1, SARS-CoV-2 receptor binding domain …; assay: BLI

Measured: binding result

B1: ab072 IgG (antibody, V domains shown)
VH: not shown
VL: QSALTQPASVSGSPGQSITISCTGTSSDVGGYNYVSWYQQHPGKAPKLMIYDVSNRPSGVSNRFSGSKSGNTASLTISGLQAEDEADYYCSSYTSSSTLVVFGTGTKVTVL
not listed: [2]
binds: all other assays above

B2: ab072 Fab (Fab, V domains shown)
VH: not shown
VL: B1 VL
binds: [2]

B3: ab119 IgG (antibody, V domains shown)
VH: EVQLVESGGGLIQPGGSLRLSCAASGFTVSSNYMSWVRQAPGKGLEWVSVIYSGGSTYYADSVKGRFTISRDNSKNTLYLQMNSLRAEDTAVYYCARDLRGITWGQGTLVTVSS
VL: not shown
binds: [1]

B4: ab007 IgG (antibody, V domains shown)
VH: QVQLVQSGAEVKKPGSSVKVSCKASGGTFSSYAISWVRQAPGQGLEWMGGIIPIFGTANYAQKFQGRVTITADESTSTAYMELSSLRSEDTAVYYCASPHCSSTSCLYHYYYYGMDVWGQGTTVTVSS
VL: not shown
binds: [1]

B5: ab017 IgG (antibody, V domains shown)
VH: not shown
VL: QSVLTQPASVSGSPGQSITISCTGTSSDVGGYNYVSWYQQHPGKAPKLMIYDVSNRPSGVSNRFSGSKSGNTASLTISGLQAEDEADYYCSSYTSSSSVVFGGGTKLTVL
not listed: [2]
binds: all other assays above

B6: ab114 IgG (antibody, V domains shown)
VH: QVQLVQSGGGVVQPGRSLRLSCAASGFTFSSYGMHWVRQAPGKGLEWVAVIWYDGSNKYYADSVKGRFTISRDNSKNTLYLQMNSLRAEDTAVYYCARDVSSGWSPGDFDYWGQGTLVTVSS
VL: B5 VL with D52E, S98T, V99Y, G103T, L107V
not listed: [2]
binds: all other assays above

B7: ab109 IgG (antibody, V domains shown)
VH: QVQLVQSGGGVVQPGRSLRLSCAASGFTFSSYAMHWVRQAPGKGLEWVAVISYDGSNKYYADSVKGRFTISRDNSKNTLYLQMNSLRAEDTAVYYCARDQEYYDILTGASGGFDYWGQGTLVTVSS
VL: not shown
not listed: [2]
binds: all other assays above
